Source: patent US20080044425A1, “POLYPEPTIDES HAVING PHOSPHOLIPASE A2 ACTIVITY” (KYOWA HAKKO KOGYO CO., LTD., priority 2000, published 2008)

Assay: Measurement of PLA2 activity in the soluble fraction of insect cells (Sf9) expressing the human-derived polypeptide
Format: biochemical
Details: 4 mmol/l calcium chloride, 37° C., 2 hours, control: pVL1393 vector virus, FIG. 10
Method: The supernatant containing the virus recovered in (2) above (2 ml) was added to 28 ml of 1.5×10^6/ml suspending Sf9 cells, and the cells were cultured at 27° C. for 4 days in the suspending state. The cells were recovered by centrifugation at 800 rpm for 5 minutes and washed with phosphate-buffered saline (PBS). The resulting cells were suspended in a buffer consisting of 25 mmol/l Tris-HCl (pH 7.5), 140 mmol/l sodium chloride, 5 mmol/l potassium chloride, 2 mmol/l EDTA and 1× complete, EDTA-free (Boehringer Mannheim) and disrupted on ice using a sonicator. The extract was centrifuged at 15,000 rpm for 15 minutes, and the supernatant was used for the measurement of PLA2 activity.
One hundred μl of a reaction solution [100 mmol/l Tris-HCl (pH 7.5), 4 mmol/l calcium chloride, 1 mg/ml bovine serum albumin (substantially fatty acid-free, Sigma) and 8 μmol/l Triton X-100] containing 1-palmitoyl-2-[1-^14C]arachidonyl-phosphatidylcholine (48 mCi/mmol, Daiichi Kagaku Yakuhin) (2 μmol/l) and the supernatant obtained above was incubated at 37° C. for 2 hours, followed by the addition of Dole reagent (containing 2-propanol, heptane and sulfuric acid at a ratio of 78:20:2) to stop the reaction. To the reaction mixture were further added 0.3 ml of heptane and 0.2 ml of water, and mixing was effected by rotation. […] The amount of the polypeptide was determined using the Bio Rad Protein Assay method. […]

B1: human-derived polypeptide of the present invention: novel human cytoplasmic phospholipase A2 polypeptide having the amino acid sequence shown in SEQ ID NO: 1, Flag-tagged, expressed in insect cells (protein, listed as Homo sapiens)
chain: MLWALWPRWLADKMLPLLGAVLLQKREKRGPLWRHWRRETYPYYDLQVKVLRATNIRGTDLLSKADCYVQLWLPTASPSPAQTRIVANCSDPEWNETFHYQIHGAVKNVLELTLYDKDILGSDQLSLLLFDLRSLKCGQPHKHTFPLNHQDSQELQVEFVLEKSQVPASEVITNGVLVAHPCLRIQGTLRGDGTAPREEYGSGQLQLAVPGAYEKPQLLPLQPPTEPGLPPTFTFHVNPVLSSRLHVELMELLAAVQSGPSTELEAQTSKLGEGGILLSSLPLGQEEQCSVALGEGQEVALSMKVEMSSGDLDLRLGFDLSDGEQEFLDRRKQVVSKALQQVLGLSEALDSGQVPVVAVLGSGGGTRAMSSLYGSLAGLQELGLLDTVTYLSGVSGSTWCISTLYRDPAWSQVALQGPIERAQVHVCSSKMGALSTERLQYYTQELGVRERSGHSVSLIDLWGLLVEYLLYQEENPAKLSDQQEAVRQGQNPYPIYTSVNVRTNLSGEDFAEWCEFTPYEVGFPKYGAYVPTELFGSELFMGRLLQLQPEPRICYLQGMWGSAFATSLDEIFLKTAGSGLSFLEWYRGSVNITDDCQKPQLHNPSRLRTRLLTPQGPFSQAVLDIFTSRFTSAQSFNFTRGLCLHKDYVAGREFVAWKDTHPDAFPNQLTPMRDCLYLVDGGFAINSPFPLALLPQRAVDLILSFDYSLEAPFEVLKMTEKYCLDRGIPFPSIEVGPEDVEEARECYLFAKAEDPRSPIVLHFPLVNRTFRTHLAPGVERQTAEEKAFGDFVINRPDTPYGMMNFTYEPQDFYRLVALSRYNVLNNVETLKCALQLALDRHQARERAGA
modifications: Flag tag
For B1, the “PLA2 activity that hydrolyzes the ester bond at the sn-2-position in 1-palmitoyl-2-arachidonyl-phosphatidylcholine” value was “has PLA2 activity”.
